Assay results published in patent publication US20130064834A1 (published 2013).

T1: Chimeric protein #1 (mPro-hCat-mC-term-mmh) (mouse; human, UniProt Q80W65 35-694)
T1 chain: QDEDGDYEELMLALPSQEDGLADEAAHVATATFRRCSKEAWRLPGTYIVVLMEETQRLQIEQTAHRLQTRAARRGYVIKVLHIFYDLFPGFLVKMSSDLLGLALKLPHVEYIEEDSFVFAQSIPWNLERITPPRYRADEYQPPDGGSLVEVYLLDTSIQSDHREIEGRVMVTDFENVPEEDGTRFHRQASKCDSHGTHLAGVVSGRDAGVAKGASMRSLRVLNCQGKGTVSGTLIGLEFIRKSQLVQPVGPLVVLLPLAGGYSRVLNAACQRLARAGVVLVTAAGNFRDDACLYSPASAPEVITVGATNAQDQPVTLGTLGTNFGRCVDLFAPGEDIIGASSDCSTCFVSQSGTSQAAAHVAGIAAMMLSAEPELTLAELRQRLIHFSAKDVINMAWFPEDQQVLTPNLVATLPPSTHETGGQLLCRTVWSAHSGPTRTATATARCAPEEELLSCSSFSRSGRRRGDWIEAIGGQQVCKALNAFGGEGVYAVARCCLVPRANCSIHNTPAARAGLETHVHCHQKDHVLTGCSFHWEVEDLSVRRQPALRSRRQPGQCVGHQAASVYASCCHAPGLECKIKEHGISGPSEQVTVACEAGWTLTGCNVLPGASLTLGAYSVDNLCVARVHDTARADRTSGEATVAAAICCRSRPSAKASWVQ

T2: Chimeric protein #3 (mPro-mCat-hC-term-mmh) (mouse; human)
T2 chain: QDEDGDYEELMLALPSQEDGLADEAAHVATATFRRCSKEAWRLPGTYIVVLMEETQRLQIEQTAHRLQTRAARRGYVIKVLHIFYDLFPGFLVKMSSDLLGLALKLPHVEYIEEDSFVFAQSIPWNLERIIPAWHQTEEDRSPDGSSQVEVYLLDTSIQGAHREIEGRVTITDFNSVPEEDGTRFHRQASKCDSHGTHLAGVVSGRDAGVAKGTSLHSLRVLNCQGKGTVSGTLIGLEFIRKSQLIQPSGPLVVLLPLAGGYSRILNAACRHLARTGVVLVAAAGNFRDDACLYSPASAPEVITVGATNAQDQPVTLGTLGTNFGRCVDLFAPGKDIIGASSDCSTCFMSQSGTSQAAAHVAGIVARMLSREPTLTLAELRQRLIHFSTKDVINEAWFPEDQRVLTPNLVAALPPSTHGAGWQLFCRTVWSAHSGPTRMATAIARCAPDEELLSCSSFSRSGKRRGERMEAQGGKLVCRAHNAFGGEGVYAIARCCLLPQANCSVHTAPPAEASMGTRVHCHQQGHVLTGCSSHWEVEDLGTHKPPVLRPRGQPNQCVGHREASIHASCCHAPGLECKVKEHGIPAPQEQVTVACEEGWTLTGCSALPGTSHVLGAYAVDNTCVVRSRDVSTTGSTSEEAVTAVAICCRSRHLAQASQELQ


Tests used:
Human PCSK9-myc-myc-his [1] = target: T3, Human PCSK9-myc-myc-his (human, UniProt Q8NBP7 31-692); experiment: SPR, antigen captured at high density, pH 7.4, 25C
T3 construct: also called hPCSK9-mmh; hPCSK9

[2] = target: T4, mouse PCSK9, myc-myc-his tagged (mouse, UniProt Q80W65 35-694); experiment: competition ELISA vs EGF-AB-hFc, pH 7.2
T4 construct: also called mPCSK9-mmh; mPCSK9
Procedure: (§1) Briefly, hLDLR-ecto, hLDLR EGF-A-hFc or hLDLR EGF-AB-hFc, each at 2 μg/ml, was coated on a 96-well plate in PBS buffer overnight at 4° C., and nonspecific binding sites blocked with BSA. […] The equilibrated sample solutions were transferred to receptor or receptor fragment coated plates.

[3] = target: T5, tagged rhesus monkey (Macaca mulata) PCSK9 (rhesus monkey (Macaca mulata), UniProt A8T666 31-692); experiment: competition ELISA vs EGF-AB-hFc, pH 7.2
T5 construct: also called mmPCSK9-mmh; mmPCSK9
Procedure: as §1

[4] = target: T4, mouse PCSK9, myc-myc-his tagged; experiment: ELISA, mAb coated, 1.7 nM antigen
Human PCSK9-myc-myc-his [5] = target: T3, Human PCSK9-myc-myc-his; experiment: ELISA, mAb coated, 1.7 nM antigen
[6] = target: T6, cynomolgus monkey (Macaca fascicularis) PCSK9, myc-myc-his tagged (cynomolgus monkey (Macaca fascicularis), UniProt A8T662 31-692 (Macaca nemestrina entry), limits assumed); experiment: ELISA, mAb coated, 1.7 nM antigen
T6 construct: also called mfPCSK9-mmh; mfPCSK9

Human PCSK9-myc-myc-his [7] = target: T3, Human PCSK9-myc-myc-his; experiment: competition ELISA vs EGF-A-hFc, pH 7.2
Procedure: as §1

hPCSK9(D374Y)-mmh = target: T7, hPCSK9(D374Y)-mmh (human, UniProt Q8NBP7 31-692); experiment: ELISA, mAb coated, 1.2 nM antigen;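 note: antigen allowed to bind for 1 h at room temperature, then captured protein revealed with an HRP-linked polyclonal anti-myc antibody and read as optical density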
T7 construct: also called hPCSK(D374Y)-mmh
Source text: (§2) After 1 hr binding at RT, the plate was washed and bound test protein detected using HRP-conjugated anti-myc polyclonal antibody (++=OD>1.0; +=OD 0.4-1.0; −=OD<0.4).

[8] = target: T4, mouse PCSK9, myc-myc-his tagged; experiment: ELISA, mAb coated, 1.2 nM antigen;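 note: antigen allowed to bind for 1 h at room temperature, then captured protein revealed with an HRP-linked polyclonal anti-myc antibody and read as optical density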
Source text: as §2

Human PCSK9-myc-myc-his [9] = target: T3, Human PCSK9-myc-myc-his; experiment: ELISA, mAb coated, 1.2 nM antigen;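 note: antigen allowed to bind for 1 h at room temperature, then captured protein revealed with an HRP-linked polyclonal anti-myc antibody and read as optical density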
Source text: as §2

[10] = target: T1, Chimeric protein #1 …; experiment: ELISA, mAb coated, 1.2 nM antigen;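 note: antigen allowed to bind for 1 h at room temperature, then captured protein revealed with an HRP-linked polyclonal anti-myc antibody and read as optical density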
Source text: as §2

[11] = target: Chimeric protein #2 (hPro-mCat-mC-term-mmh) (human; mouse, UniProt Q80W65 19-694); experiment: ELISA, mAb coated, 1.2 nM antigen
Source text: as §2

[12] = target: T2, Chimeric protein #3 …; experiment: ELISA, mAb coated, 1.2 nM antigen
Source text: as §2

[13] = target: T4, mouse PCSK9, myc-myc-his tagged; experiment: SPR, mAb amine-coupled, 25C, pH 7.4
Source text: Briefly, mAbs were immobilized onto BIACORE™ CM5 sensor chips via amine coupling.

T5 sequence (A8T666 31-692 limits assumed): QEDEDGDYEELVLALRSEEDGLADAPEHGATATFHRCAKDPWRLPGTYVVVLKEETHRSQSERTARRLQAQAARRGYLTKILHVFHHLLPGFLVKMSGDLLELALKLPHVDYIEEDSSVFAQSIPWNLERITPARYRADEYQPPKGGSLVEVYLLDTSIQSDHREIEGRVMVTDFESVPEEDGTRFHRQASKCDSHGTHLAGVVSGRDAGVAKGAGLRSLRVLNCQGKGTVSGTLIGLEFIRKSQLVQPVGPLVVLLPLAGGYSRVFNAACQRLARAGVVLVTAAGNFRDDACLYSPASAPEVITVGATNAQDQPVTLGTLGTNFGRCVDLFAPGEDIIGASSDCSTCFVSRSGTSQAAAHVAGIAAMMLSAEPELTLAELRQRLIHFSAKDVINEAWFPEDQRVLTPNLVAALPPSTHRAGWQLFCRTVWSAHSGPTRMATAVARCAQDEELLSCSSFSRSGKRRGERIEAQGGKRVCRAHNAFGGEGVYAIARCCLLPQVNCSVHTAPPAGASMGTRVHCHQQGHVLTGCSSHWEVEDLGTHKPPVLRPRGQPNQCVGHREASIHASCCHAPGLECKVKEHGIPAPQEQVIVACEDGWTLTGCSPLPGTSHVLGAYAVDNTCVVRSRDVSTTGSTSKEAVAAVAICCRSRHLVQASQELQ
T6 sequence (A8T662 31-692 limits assumed): as the sequence (A8T666 31-692 limits assumed) above, with P607A, K639E counted along it

| Binder | Kd (Human PCSK9-myc-myc-his [1]) | T1/2 (Human PCSK9-myc-myc-his [1]) | IC50 [2] | IC50 [3] | OD [4] | OD (Human PCSK9-myc-myc-his [5]) | OD [6] | IC50 (Human PCSK9-myc-myc-his [7]) | OD (hPCSK9(D374Y)-mmh) | OD [8] | OD (Human PCSK9-myc-myc-his [9]) | OD [10] | OD [11] | OD [12] | Kd [13] | T1/2 [13] |
| --- | --- | --- | --- | --- | --- | --- | --- | --- | --- | --- | --- | --- | --- | --- | --- | --- |
| H1M300N (antibody, V domains shown, Fully human version made in CHO cells) VH: EMQLVESGGGLVQPGGSLRLSCAASGFTFSSHWMKWVRQAPGKGLEWVANINQDGSEKYYVDSVKGRFTISRDNAKNSLFLQMNSLRAEDTAVYYCARDIVLMVYDMDYYYYGMDVWGQGTTVTVSS VL: not shown | 0.065 nM | 8.45 h | > 33 nM | 0.29 nM | < 0.7 od | > 1.5 od | > 1.5 od | 0.146 nM |  |  |  |  |  |  |  |  |
| H1H316P (antibody, V domains shown, Fully human mAb made in CHO cells; also called mAb316P) VH: EVQLVESGGGLVQPGGSLRLSCAASGFTFNNYAMNWVRQAPGKGLDWVSTISGSGGTTNYADSVKGRFIISRDSSKHTLYLQMNSLRAEDTAVYYCAKDSNWGNFDLWGRGTLVTVSS VL: not shown | 0.191 nM | 1.23 h | < 0.25 nM | < 0.25 nM | > 1.5 od | > 1.5 od | > 1.5 od | < 0.125 nM | > 1 od | > 1 od | > 1 od | > 1 od | > 1 od | > 1 od | 4.46 nM | 0.167 h |
